Measured values as given in the supplement of paper PMC7877785.
± gives the uncertainty stated by the source.

Test: self-splicing fitness, log relative to wild type (ln ratio); higher = more splicing; Tetrahymena group I intron in knt gene, E. coli kanamycin selection, DiMSum; sequences stand for … in CUCUCU…GGAGGGAAAAGUUAUCAGGCAUGCACCUGGUAGCUAGUCUUUAAACCAAUAGAUUGCAUCGGUUUAAAAGGCAAGACCGUCAAAUUGCGGGAAAGGGGUCAACAGCCGUUCAGUACCAAGUCUCAGGGGAAACUUUGAGAUGGCCUUGCAAAGGGUAUGGUAAUAAGCUGACGGACAUGGUCCUAACCACGCAGCCAAGUCCUAAGUCAACAGAUCUUCUGUUGAUAUGGAUGCAGUUCACAGACUAAAUGUCGGUCGGGGAAGAUGUAUUCUUCUCAUAAGAUAUAGUCGGACCUCUCCUUAAUGGGAGCUAGCGGAUGAAGUGAUGCAACACUGGAGCCGCUGGGAACUAAUUUGUAUGCGAAAGUAUAUUGAUUAGUUUUGGAGUACUCGUGGUCG
How it was run: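 Pooled colonies went to amplicon sequencing on an Illumina HiSeq 2500 after six replicate transformations. The plates were LB agar with 100 μg/mL carbenicillin, 50 μM IPTG and 0.2% rhamnose, with or without 25 μg/mL kanamycin, incubated overnight at 37°C or 30°C. The E. coli BL21(DE3) library had all eight P1ex-region intron nucleotides randomised, the intron placed in the knt kanamycin-resistance gene on pET-22b(+). DiMSum fitness is the error-weighted combination of replicate fold changes, kanamycin against none, normalised to wild type.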

## AGACAGCAAUAUUACGCACC
30 °C
  self-splicing fitness (ln): -0.553 ± 0.13
37 °C
  self-splicing fitness (ln): 0.279 ± 0.17

## AGACAGCAAUAUUACGCAUG
30 °C
  self-splicing fitness (ln): -2.45 ± 0.13
37 °C
  self-splicing fitness (ln): -1.23 ± 0.11

## AGACAGCAAUAUUACGCUAA
30 °C
  self-splicing fitness (ln): -2.17 ± 0.11
37 °C
  self-splicing fitness (ln): -0.0364 ± 0.1

## AGACAGCAAUAUUACGCUGA
30 °C
  self-splicing fitness (ln): -2.39 ± 0.16
37 °C
  self-splicing fitness (ln): -1.75 ± 0.19

## AGACAGCAAUAUUACGGAGU
30 °C
  self-splicing fitness (ln): -4.06 ± 0.16
37 °C
  self-splicing fitness (ln): -2.28 ± 0.13

## AGACAGCAAUAUUACGGCAU
30 °C
  self-splicing fitness (ln): -0.544 ± 0.052
37 °C
  self-splicing fitness (ln): -0.211 ± 0.066

## AGACAGCAAUAUUACGGCGG
30 °C
  self-splicing fitness (ln): -2.25 ± 0.13
37 °C
  self-splicing fitness (ln): -0.609 ± 0.14

## AGACAGCAAUAUUACGGGAU
30 °C
  self-splicing fitness (ln): -1.22 ± 0.098
37 °C
  self-splicing fitness (ln): -1.71 ± 0.14

## AGACAGCAAUAUUACGGGGG
30 °C
  self-splicing fitness (ln): -3.63 ± 0.26
37 °C
  self-splicing fitness (ln): -2.79 ± 0.23

## AGACAGCAAUAUUACGGUAA
30 °C
  self-splicing fitness (ln): -2.04 ± 0.11
37 °C
  self-splicing fitness (ln): -1.37 ± 0.085

## AGACAGCAAUAUUACGGUAC
30 °C
  self-splicing fitness (ln): -3.29 ± 0.17
37 °C
  self-splicing fitness (ln): -2.41 ± 0.17

## AGACAGCAAUAUUACGGUUC
30 °C
  self-splicing fitness (ln): -3.34 ± 0.18
37 °C
  self-splicing fitness (ln): -1.05 ± 0.13

## AGACAGCAAUAUUACGUAAU
30 °C
  self-splicing fitness (ln): -1.3 ± 0.05
37 °C
  self-splicing fitness (ln): -0.92 ± 0.071

## AGACAGCAAUAUUACGUCUA
30 °C
  self-splicing fitness (ln): -1.31 ± 0.097
37 °C
  self-splicing fitness (ln): -0.608 ± 0.099

## AGACAGCAAUAUUACGUUCA
30 °C
  self-splicing fitness (ln): -0.336 ± 0.056
37 °C
  self-splicing fitness (ln): -0.159 ± 0.086

## AGACAGCAAUAUUACGUUGA
30 °C
  self-splicing fitness (ln): -3.58 ± 0.16
37 °C
  self-splicing fitness (ln): -1.77 ± 0.11

## AGACAGCAAUAUUACGUUUA
30 °C
  self-splicing fitness (ln): -2.45 ± 0.094
37 °C
  self-splicing fitness (ln): -0.782 ± 0.083

## AGACAGCAAUAUUACGUUUU
30 °C
  self-splicing fitness (ln): -3 ± 0.13
37 °C
  self-splicing fitness (ln): -3.77 ± 0.24

## AGAGAGCAAUAUUACGAUAG
37 °C
  self-splicing fitness (ln): -0.994 ± 0.49

## AGAGAGCAAUAUUACGAUCA
30 °C
  self-splicing fitness (ln): -1.93 ± 0.16
37 °C
  self-splicing fitness (ln): -1.44 ± 0.17

## AGAGAGCAAUAUUACGAUGU
30 °C
  self-splicing fitness (ln): -2.52 ± 0.41
37 °C
  self-splicing fitness (ln): -2.69 ± 0.36

## AGAGAGCAAUAUUACGCAAU
30 °C
  self-splicing fitness (ln): -3.58 ± 0.43
37 °C
  self-splicing fitness (ln): -2.48 ± 0.29

## AGAGAGCAAUAUUACGCACC
30 °C
  self-splicing fitness (ln): 0.805 ± 0.35

## AGAGAGCAAUAUUACGCAUA
30 °C
  self-splicing fitness (ln): -3.84 ± 0.39
37 °C
  self-splicing fitness (ln): -2.96 ± 0.47

## AGAGAGCAAUAUUACGCAUU
30 °C
  self-splicing fitness (ln): -3.41 ± 0.18
37 °C
  self-splicing fitness (ln): -2.35 ± 0.15

## AGAGAGCAAUAUUACGCGAU
37 °C
  self-splicing fitness (ln): -2.82 ± 0.43

## AGAGAGCAAUAUUACGCUCA
30 °C
  self-splicing fitness (ln): -2.44 ± 0.27
37 °C
  self-splicing fitness (ln): -1.11 ± 0.21

## AGAGAGCAAUAUUACGCUGA
30 °C
  self-splicing fitness (ln): -2.75 ± 0.18
37 °C
  self-splicing fitness (ln): -2.94 ± 0.28

## AGAGAGCAAUAUUACGGACU
30 °C
  self-splicing fitness (ln): -0.413 ± 0.12
37 °C
  self-splicing fitness (ln): -0.495 ± 0.17

## AGAGAGCAAUAUUACGGCCG
30 °C
  self-splicing fitness (ln): -3.41 ± 0.36
37 °C
  self-splicing fitness (ln): -1.39 ± 0.28

## AGAGAGCAAUAUUACGGGUC
37 °C
  self-splicing fitness (ln): -3.11 ± 0.48

## AGAGAGCAAUAUUACGGUAA
30 °C
  self-splicing fitness (ln): -2.95 ± 0.31
37 °C
  self-splicing fitness (ln): -2.28 ± 0.33

## AGAGAGCAAUAUUACGGUAU
30 °C
  self-splicing fitness (ln): -3.91 ± 0.37
37 °C
  self-splicing fitness (ln): -3.55 ± 0.29

## AGAGAGCAAUAUUACGGUGA
30 °C
  self-splicing fitness (ln): -3.54 ± 0.38

## AGAGAGCAAUAUUACGGUUA
30 °C
  self-splicing fitness (ln): -3.1 ± 0.25
37 °C
  self-splicing fitness (ln): -1.83 ± 0.21

## AGAGAGCAAUAUUACGUAGC
30 °C
  self-splicing fitness (ln): -4.09 ± 0.3
37 °C
  self-splicing fitness (ln): -3.62 ± 0.46

## AGAGAGCAAUAUUACGUCAA
30 °C
  self-splicing fitness (ln): -2.29 ± 0.5

## AGAGAGCAAUAUUACGUCUA
30 °C
  self-splicing fitness (ln): -2.48 ± 0.35
37 °C
  self-splicing fitness (ln): -0.494 ± 0.26

## AGAGAGCAAUAUUACGUGAA
30 °C
  self-splicing fitness (ln): -2.82 ± 0.3
37 °C
  self-splicing fitness (ln): -2.16 ± 0.29

## AGAGAGCAAUAUUACGUGCA
30 °C
  self-splicing fitness (ln): -3.36 ± 0.26
37 °C
  self-splicing fitness (ln): -2.34 ± 0.24

## AGAGAGCAAUAUUACGUUAA
30 °C
  self-splicing fitness (ln): -3.32 ± 0.25
37 °C
  self-splicing fitness (ln): -2.36 ± 0.24

## AGAGAGCAAUAUUACGUUAU
30 °C
  self-splicing fitness (ln): -2.61 ± 0.18
37 °C
  self-splicing fitness (ln): -2.64 ± 0.48

## AGAGAGCAAUAUUACGUUUA
37 °C
  self-splicing fitness (ln): -2.08 ± 0.33

## AGAUAGCAAUAUUACGAAUG
30 °C
  self-splicing fitness (ln): -2.62 ± 0.13
37 °C
  self-splicing fitness (ln): -1.32 ± 0.11

## AGAUAGCAAUAUUACGCAGC
30 °C
  self-splicing fitness (ln): -2.44 ± 0.22
37 °C
  self-splicing fitness (ln): -1.43 ± 0.4

## AGAUAGCAAUAUUACGCCCG
30 °C
  self-splicing fitness (ln): -0.427 ± 0.23
37 °C
  self-splicing fitness (ln): -0.478 ± 0.24

## AGAUAGCAAUAUUACGCCGU
30 °C
  self-splicing fitness (ln): -0.974 ± 0.11
37 °C
  self-splicing fitness (ln): -0.953 ± 0.12

## AGAUAGCAAUAUUACGCGAC
30 °C
  self-splicing fitness (ln): -2.67 ± 0.29
37 °C
  self-splicing fitness (ln): -1.21 ± 0.39

## AGAUAGCAAUAUUACGGUCA
30 °C
  self-splicing fitness (ln): -0.325 ± 0.08
37 °C
  self-splicing fitness (ln): 0.317 ± 0.11

## AGAUAGCAAUAUUACGGUGA
30 °C
  self-splicing fitness (ln): -1.9 ± 0.2
37 °C
  self-splicing fitness (ln): -0.858 ± 0.17
